Laboratory results reported in patent publication JP2014141434A (dated 2014).

Tests used:
[1] = biological target: T1, N末端FLAG−tag付加型カニクイザルROBO4 cynoROBO4−2 (cynomolgus monkey, UniProt Q8WZ75 28-1007 (human entry)); assay: flow cytometry, transfected HEK293 cells
T1 construct: also called pCI−FLAG−cynoROBO4−2
T1 chain: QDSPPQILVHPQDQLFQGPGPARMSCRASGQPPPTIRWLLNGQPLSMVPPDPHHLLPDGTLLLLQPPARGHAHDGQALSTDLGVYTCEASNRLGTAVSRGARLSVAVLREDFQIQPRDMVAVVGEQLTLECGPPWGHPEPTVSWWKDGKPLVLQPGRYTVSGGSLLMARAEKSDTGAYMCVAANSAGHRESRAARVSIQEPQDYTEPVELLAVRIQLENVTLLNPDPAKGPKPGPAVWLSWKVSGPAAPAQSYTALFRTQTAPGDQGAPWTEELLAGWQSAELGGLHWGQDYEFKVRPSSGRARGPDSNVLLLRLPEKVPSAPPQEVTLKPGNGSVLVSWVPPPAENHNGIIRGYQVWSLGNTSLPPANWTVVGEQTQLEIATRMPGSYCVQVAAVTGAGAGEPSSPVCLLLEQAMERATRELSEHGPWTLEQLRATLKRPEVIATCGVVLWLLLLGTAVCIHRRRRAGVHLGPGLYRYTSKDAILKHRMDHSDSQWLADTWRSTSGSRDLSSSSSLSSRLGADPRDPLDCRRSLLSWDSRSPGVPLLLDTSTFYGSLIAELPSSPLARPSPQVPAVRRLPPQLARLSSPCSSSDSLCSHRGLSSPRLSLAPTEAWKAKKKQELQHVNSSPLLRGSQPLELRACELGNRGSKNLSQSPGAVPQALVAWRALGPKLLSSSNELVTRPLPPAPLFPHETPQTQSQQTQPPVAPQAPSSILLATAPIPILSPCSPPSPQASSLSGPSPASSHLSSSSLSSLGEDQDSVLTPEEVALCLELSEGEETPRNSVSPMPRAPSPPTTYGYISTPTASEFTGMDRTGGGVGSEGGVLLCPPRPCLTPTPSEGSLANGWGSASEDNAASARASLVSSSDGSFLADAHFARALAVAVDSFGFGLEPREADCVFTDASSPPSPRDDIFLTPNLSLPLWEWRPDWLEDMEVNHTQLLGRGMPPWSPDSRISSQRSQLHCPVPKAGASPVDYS

[2] = biological target: T2, N末端FLAG−tag付加型カニクイザルROBO4 cynoROBO4−1 (cynomolgus monkey, UniProt Q8WZ75 28-1007 (human entry)); assay: flow cytometry, transfected HEK293 cells
T2 construct: also called pCI−FLAG−cynoROBO4−1
T2 chain: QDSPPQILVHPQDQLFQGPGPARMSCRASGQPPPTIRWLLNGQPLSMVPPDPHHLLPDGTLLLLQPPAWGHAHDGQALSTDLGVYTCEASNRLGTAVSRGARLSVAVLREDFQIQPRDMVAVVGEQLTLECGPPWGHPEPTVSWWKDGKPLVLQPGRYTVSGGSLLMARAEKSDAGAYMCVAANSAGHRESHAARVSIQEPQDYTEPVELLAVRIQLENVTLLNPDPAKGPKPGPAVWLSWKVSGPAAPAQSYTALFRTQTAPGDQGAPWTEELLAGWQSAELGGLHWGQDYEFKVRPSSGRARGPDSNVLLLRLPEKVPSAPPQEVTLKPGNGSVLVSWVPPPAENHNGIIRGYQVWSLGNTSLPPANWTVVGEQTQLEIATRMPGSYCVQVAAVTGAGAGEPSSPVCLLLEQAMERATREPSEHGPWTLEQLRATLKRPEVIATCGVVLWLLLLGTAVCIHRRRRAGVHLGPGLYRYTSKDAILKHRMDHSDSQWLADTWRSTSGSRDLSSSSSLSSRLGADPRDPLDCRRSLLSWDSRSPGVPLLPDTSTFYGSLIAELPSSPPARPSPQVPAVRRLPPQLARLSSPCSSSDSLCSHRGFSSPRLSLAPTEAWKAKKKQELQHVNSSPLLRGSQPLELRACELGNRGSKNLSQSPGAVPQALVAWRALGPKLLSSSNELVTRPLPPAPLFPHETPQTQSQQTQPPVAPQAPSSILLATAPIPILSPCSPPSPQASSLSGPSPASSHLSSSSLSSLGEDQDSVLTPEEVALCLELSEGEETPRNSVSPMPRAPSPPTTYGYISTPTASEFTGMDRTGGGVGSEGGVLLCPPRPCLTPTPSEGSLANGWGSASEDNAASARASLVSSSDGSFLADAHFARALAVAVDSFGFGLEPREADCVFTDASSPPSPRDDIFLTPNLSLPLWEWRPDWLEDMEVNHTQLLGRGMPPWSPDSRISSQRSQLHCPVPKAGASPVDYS

[3] = biological target: T3, 全長ヒトROBO4 (pCI−hROBO4導入細胞) (human, UniProt Q8WZ75 28-1007); assay: flow cytometry, hybridoma supernatant on hROBO4-transfected HEK293T cells against mock cells
T3 construct: Expressed from pCI-hROBO4 on HEK293 / HEK293T cells; also called human ROBO4
T3 sequence: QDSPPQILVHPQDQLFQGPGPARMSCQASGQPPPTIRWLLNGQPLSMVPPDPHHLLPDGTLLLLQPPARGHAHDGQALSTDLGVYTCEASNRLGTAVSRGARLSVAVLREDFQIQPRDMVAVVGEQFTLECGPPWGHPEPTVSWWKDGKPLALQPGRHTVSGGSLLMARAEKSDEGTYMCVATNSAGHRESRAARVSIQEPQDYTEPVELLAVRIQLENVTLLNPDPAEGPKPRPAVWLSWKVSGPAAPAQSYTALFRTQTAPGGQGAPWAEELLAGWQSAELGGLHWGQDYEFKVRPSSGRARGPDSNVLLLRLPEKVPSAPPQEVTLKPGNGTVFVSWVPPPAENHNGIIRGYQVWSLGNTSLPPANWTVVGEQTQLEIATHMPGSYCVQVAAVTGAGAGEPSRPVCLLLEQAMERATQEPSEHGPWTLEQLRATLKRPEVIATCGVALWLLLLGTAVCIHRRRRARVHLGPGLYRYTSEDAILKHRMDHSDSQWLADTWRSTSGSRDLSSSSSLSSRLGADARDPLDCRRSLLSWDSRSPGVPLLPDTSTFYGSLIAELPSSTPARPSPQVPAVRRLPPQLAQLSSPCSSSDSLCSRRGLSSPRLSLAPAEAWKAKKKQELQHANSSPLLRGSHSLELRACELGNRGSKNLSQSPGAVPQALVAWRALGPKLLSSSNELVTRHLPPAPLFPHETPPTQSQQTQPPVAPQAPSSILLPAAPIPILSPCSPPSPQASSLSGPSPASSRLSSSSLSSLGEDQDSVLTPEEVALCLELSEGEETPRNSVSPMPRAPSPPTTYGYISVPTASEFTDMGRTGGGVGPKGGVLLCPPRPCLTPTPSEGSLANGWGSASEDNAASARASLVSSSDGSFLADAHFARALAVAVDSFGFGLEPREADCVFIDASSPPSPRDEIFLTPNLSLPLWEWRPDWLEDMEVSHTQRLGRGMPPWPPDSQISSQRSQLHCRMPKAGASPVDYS

B1: ヒト化MAb1抗体 H−2143 (antibody, human IgG2, kappa, V domains shown)
VH: EVQLVESGGGLVQPGGSLRLSCAASGFTFSTYAMSWVRQAPGKRLEWVATISQGGTYTYYPDSVKGRFTISRDNAKNTLYLQMNSLRAEDTAVYYCARLIYYDYLDYWGQGTLVTVSS
VL: DIVMTQSPLSLPVTLGEPASISCRSSQSLENENKNLYLNWYLQKPGQSPQLLIYRVSNRFSGVPDRFSGSGSGTDFTLKISRVEAEDVGVYYCLQVTHVPWTFGPGTKVDIKR
notes: Humanised IgG2 / kappa; also called H-2143; hMAb1-H4 / hMAb1-L2
B1: binds [1]; binds [2].

B2: ヒト化MAb1抗体 H−1143 (antibody, human IgG2, kappa, V domains shown)
VH: EVQLVESGGGLVQPGGSLRLSCAASGFTFSTYAMSWVRQAPGKGLEWVATISQGGTYTYYPDSVKGRFTISRDNAKNTLYLQMNSLRAEDTAVYYCARLIYYDYLDYWGQGTLVTVSS
VL: DIVMTQSPLSLPVTLGEPASISCRSSQSLENENKNLYLNWYLQKPGQSPQLLIYRVSNRFSGVPDRFSGSGSGTDFTLKISRVEAEDVGVYYCLQVTHVPWTFGPGTKVDIKR
notes: Humanised IgG2 / kappa; also called H-1143; hMAb1-H2 / hMAb1-L2
B2: binds [1]; binds [2].

B3: ヒト化MAb1抗体 H−2140 (antibody, human IgG2, kappa, V domains shown)
VH: EVQLVESGGGLVQPGGSLRLSCAASGFTFSTYAMSWVRQAPGKRLEWVATISQGGTYTYYPDSVKGRFTISRDNAKNTLYLQMNSLRAEDTAVYYCARLIYYDYLDYWGQGTLVTVSS
VL: DIVMTQSPLSLPVTLGEPASISCRSSQSLENSNGNTYLNWYLQKPGQSPQLLIYRVSNRFSGVPDRFSGSGSGTDFTLKISRVEAEDVGVYYCLQVTHVPWTFGPGTKVDIKR
notes: Humanised IgG2 / kappa; also called H-2140; hMAb1-H4 / hMAb1-L1
B3: binds [1]; binds [2].

B4: 抗ROBO4マウスモノクローナル抗体 MAb1 (antibody, V domains shown)
VH: EVQLVESGGGLVKPGGSLKLSCAASGFTFSTYAMSWVRQTPEKRLEWVATISNGGTYTYYPDSVKGRFTISRDNAENTLYLQMSSLRSEDTAMYFCARLIYYDYLDYWGHGTTLTVSS
VL: DAVMTQTPLSLPVSLGDQASISCRSSQSLENSNGNTYLNWYFQKPGQSPQLLIYRVSNRFSGVLDRFSGSGSGTDFTLKISRVEAEDFGVYFCLQVTHVPWTFGGGTKLEIKR
notes: Mouse IgG1 (gamma 1) / kappa from a hybridoma; The constant regions are not in the listing; also called MAb1
B4: binds [3].
